Results on four molecules are retold here after patent US20110177998A1 (COMPUGEN, published 2011).

Positions of bridges follow the written chain, without caps; N, C: chain ends. Chains are numbered I, II in the order given. No end group written: not given here.

The target in assay [1] is T1, LGR7 (RXFP1) (human, UniProt Q9HBX9 1-757).
T1 sequence (looked up): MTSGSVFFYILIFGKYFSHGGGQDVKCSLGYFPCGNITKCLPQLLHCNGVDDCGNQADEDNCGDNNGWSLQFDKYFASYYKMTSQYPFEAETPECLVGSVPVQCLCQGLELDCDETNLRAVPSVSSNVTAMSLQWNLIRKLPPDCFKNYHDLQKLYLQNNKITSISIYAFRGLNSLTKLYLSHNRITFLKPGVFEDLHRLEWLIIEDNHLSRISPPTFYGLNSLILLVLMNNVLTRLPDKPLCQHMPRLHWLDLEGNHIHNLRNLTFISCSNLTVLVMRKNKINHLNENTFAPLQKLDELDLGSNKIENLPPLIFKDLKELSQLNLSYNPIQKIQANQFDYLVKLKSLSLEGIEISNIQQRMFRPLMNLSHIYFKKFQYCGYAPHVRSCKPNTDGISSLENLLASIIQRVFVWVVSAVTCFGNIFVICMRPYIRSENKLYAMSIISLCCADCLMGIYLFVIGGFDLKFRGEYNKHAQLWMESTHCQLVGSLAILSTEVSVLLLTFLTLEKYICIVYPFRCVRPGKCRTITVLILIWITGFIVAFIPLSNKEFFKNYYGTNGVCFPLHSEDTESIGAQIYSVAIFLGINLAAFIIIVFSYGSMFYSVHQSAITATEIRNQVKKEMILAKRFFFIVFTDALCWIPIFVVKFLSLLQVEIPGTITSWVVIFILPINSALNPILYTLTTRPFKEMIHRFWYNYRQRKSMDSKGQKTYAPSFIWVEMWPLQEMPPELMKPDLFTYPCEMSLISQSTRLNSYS
The assay can be described thus: cell-based or functional assay.

For assay [2], the target named is T2, LGR8 (RXFP2) (human, UniProt Q8WXD0 1-754).
T2 construct: whole, on cells; also called RXFP2_HUMAN
T2 sequence (Q8WXD0 whole entry): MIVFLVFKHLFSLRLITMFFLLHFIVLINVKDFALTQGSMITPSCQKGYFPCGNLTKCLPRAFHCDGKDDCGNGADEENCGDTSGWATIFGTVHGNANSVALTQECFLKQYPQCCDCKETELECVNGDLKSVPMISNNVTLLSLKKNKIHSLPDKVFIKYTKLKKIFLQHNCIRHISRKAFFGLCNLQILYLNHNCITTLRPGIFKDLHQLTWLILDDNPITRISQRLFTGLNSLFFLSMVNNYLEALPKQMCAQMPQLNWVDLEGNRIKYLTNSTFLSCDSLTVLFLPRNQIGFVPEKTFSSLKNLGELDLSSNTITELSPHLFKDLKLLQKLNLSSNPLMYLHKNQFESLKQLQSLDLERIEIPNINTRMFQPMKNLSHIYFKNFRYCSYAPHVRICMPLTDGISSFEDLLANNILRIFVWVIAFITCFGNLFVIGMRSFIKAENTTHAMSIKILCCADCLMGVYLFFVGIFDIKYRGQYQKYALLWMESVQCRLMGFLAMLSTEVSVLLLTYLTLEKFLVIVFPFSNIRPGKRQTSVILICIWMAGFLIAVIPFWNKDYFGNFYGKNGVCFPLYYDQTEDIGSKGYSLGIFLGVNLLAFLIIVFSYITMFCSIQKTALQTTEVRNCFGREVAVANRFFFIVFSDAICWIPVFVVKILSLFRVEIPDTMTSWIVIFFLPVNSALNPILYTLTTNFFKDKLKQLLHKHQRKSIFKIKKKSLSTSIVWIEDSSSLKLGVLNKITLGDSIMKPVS
Nature of the assay: Competition binding against Europium-INSL3 on HEK-293T cells expressing LGR8.

In assay [3] the target is T2, LGR8 (RXFP2). The assay can be described thus: cell-based or functional assay.

B1: Peptide P74C13V (free acid) (peptide)
peptide: GQKGQVGPPGAAVRRAYAAFSVGRRAYAAFSV
notes: Free acid C-terminus
On to B1, for which the “EC50, cell impedance dose response (ACEA RT-CES), transfected CHO-K1 cells” value in assay [1] was roughly 300 nM. Besides, the binding result in assay [2] is “binds”.

B2: H2 Relaxin (ligand)
chain 1: QLYSALANKCCHVGCTKRSLARFC
chain 2: DSWMEEVIKLCGRELVRAQIAICGMSTWS
modifications: disulfide I:10-I:15, I:11-II:11, I:24-II:23; not fully specified (some residues); ends not checked
As for B2, the “EC50, cell impedance dose response (ACEA RT-CES), transfected CHO-K1 cells” value in assay [1] was roughly 100 nM.

B3: Peptide P59-S-Amide (Amide) (peptide)
peptide: AYAAFSV-NH2
In the case of B3, the “pCRE-beta-gal reporter after 5 uM forskolin, CHO-K1 cells, % of Forskolin activity” value in assay [3] and in assay [1] was ~2 fold of Forskolin throughout.

B4: Peptide P59C13V-Amide (amide) (peptide)
peptide: GQKGQVGPPGAAVRRAYAAFSV-NH2
notes: Synthetic peptide, the C-terminally amidated form of P59C13V; also called P59-Amide; P59 Amide
For B4, the binding result in assay [2] is “binds”.
